Test system: 575 putative partners (preys) of 22 WT SH3-containing proteins
Test: DHFR-PCA on solid medium, WT and SH3-deleted baits (Fig. 1B)
Format: cell-based, Saccharomyces cerevisiae
Details: number of PPIs; SH3 domain in its own protein; DHFR-PCA; Fig2D,S2F
In short: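 Interactions scored by DHFR protein-fragment complementation on solid medium using robotic pinning; preys (DHFR F[3] fusions) arrayed in duplicate with control borders. Baits carried C-terminal DHFR F[1,2]-FLAG tags, tested as wild type and as SH3-deleted versions carrying a flexible Gly/Ser stuffer.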

B1: BOI1 (protein, UniProt P38041 1-980, looked up)
BEM1-interacting protein 1: MSLEGNTLGKGAKSFPLYIAVNQYSKRMEDELNMKPGDKIKVITDDGEYNDGWYYGRNLRTKEEGLYPAVFTKRIAIEKPENLHKSPTQESGNSGVKYGNLNDSASNIGKVSSHQQENRYTSLKSTMSDIDKALEELRSGSVEQEVSKSPTRVPEVSTPQLQDEQTLIQEKTRNEENTTHDSLFSSTADLNLSSESLKNISKSNISTKSLEPSSESVRQLDLKMAKSWSPEEVTDYFSLVGFDQSTCNKFKEHQVSGKILLELELEHLKELEINSFGIRFQIFKEIRNIKSAIDSSSNKLDADYSTFAFENQAAQLMPAATVNRDEIQQQISSKCNKLSSESSDRKSSSVTTELQRPSSVVVNPNFKLHDPAEQILDMTEVPNLFADKDIFESPGRAPKPPSYPSPVQPPQSPSFNNRYTNNNARFPPQTTYPPKNKNPTVYSNGLIPNSSTSSDNSTGKFKFPAMNGHDSNSRKTTLTSATIPSINTVNTDESLPAISNISSNATSHHPNRNSVVYNNHKRTESGSSFVDLFNRISMLSPVKSSFDEEETKQPSKASRAVFDSARRKSSYGHSRDASLSEMKKHRRNSSILSFFSSKSQSNPTSPTKQTFTIDPAKMTSHSRSQSNSYSHARSQSYSHSRKHSLVTSPLKTSLSPINSKSNIALAHSETPTSSNNKEAVSQPSEGKHKHKHKHKSKHKHKNSSSKDGSSEEKSKKKLFSSTKESFVGSKEFKRSPSELTQKSTKSILPRSNAKKQQTSAFTEGIRSITAKESMQTADCSGWMSKKGTGAMGTWKQRFFTLHGTRLSYFTNTNDEKERGLIDITAHRVLPASDDDRLISLYAASLGKGKYCFKLVPPQPGSKKGLTFTEPRVHYFAVENKSEMKAWLSAIIKATIDIDTSVPVISSYATPTIPLSKAQTLLEEARLQTQLRDAEEEEGRDQFGWDDTQNKRNSNYPIEQDQFETSDYLESSAFEYPGGRL
  SH3-dependent PPIs: 3
